Measured values: publication PMC13396810, “HELZ is a RNA-DNA helicase that resolves R loops to facilitate homologous recombination repair”

Columns and labels:
[1] = biological target: HELZ WT (insect-purified) (human, UniProt P42694 1-1942); test: EMSA; no ATP; 5 nM substrate; EMSA: 10 mM Tris-HCl pH 7.5, 60 mM KCl, 100 ng/ul BSA, 2 U/ul RNaseIN, 1 mM DTT, 30 min on ice, 5% native TAE gel 4 C; pull-down: 10 mM Tris-HCl pH 7.5, 100 mM; conditions: protein: recombinant; label: Cy5 at 5' end of RNA; 30 bp hybrid S1[16-45] with S2[31-60]; 15 nt 5' RNA overhang; 30 nt 5' and 30 nt 3' DNA overhangs
[2] = biological target: HELZ K674N (insect-purified) (human, UniProt P42694 1-1942, K674N); test: EMSA; no ATP; 5 nM substrate; comparable to WT; EMSA: 10 mM Tris-HCl pH 7.5, 60 mM KCl, 100 ng/ul BSA, 2 U/ul RNaseIN, 1 mM DTT, 30 min on ice, 5% native TAE gel 4 C; pull-down: 10 mM Tris-HCl pH 7.5, 100 mM; conditions: protein: recombinant; label: Cy5 at 5' end of RNA; 30 bp hybrid S1[16-45] with S2[31-60]; 15 nt 5' RNA overhang; 30 nt 5' and 30 nt 3' DNA overhangs
Chain of HELZ K674N (insect-purified) (P42694 whole entry K674N): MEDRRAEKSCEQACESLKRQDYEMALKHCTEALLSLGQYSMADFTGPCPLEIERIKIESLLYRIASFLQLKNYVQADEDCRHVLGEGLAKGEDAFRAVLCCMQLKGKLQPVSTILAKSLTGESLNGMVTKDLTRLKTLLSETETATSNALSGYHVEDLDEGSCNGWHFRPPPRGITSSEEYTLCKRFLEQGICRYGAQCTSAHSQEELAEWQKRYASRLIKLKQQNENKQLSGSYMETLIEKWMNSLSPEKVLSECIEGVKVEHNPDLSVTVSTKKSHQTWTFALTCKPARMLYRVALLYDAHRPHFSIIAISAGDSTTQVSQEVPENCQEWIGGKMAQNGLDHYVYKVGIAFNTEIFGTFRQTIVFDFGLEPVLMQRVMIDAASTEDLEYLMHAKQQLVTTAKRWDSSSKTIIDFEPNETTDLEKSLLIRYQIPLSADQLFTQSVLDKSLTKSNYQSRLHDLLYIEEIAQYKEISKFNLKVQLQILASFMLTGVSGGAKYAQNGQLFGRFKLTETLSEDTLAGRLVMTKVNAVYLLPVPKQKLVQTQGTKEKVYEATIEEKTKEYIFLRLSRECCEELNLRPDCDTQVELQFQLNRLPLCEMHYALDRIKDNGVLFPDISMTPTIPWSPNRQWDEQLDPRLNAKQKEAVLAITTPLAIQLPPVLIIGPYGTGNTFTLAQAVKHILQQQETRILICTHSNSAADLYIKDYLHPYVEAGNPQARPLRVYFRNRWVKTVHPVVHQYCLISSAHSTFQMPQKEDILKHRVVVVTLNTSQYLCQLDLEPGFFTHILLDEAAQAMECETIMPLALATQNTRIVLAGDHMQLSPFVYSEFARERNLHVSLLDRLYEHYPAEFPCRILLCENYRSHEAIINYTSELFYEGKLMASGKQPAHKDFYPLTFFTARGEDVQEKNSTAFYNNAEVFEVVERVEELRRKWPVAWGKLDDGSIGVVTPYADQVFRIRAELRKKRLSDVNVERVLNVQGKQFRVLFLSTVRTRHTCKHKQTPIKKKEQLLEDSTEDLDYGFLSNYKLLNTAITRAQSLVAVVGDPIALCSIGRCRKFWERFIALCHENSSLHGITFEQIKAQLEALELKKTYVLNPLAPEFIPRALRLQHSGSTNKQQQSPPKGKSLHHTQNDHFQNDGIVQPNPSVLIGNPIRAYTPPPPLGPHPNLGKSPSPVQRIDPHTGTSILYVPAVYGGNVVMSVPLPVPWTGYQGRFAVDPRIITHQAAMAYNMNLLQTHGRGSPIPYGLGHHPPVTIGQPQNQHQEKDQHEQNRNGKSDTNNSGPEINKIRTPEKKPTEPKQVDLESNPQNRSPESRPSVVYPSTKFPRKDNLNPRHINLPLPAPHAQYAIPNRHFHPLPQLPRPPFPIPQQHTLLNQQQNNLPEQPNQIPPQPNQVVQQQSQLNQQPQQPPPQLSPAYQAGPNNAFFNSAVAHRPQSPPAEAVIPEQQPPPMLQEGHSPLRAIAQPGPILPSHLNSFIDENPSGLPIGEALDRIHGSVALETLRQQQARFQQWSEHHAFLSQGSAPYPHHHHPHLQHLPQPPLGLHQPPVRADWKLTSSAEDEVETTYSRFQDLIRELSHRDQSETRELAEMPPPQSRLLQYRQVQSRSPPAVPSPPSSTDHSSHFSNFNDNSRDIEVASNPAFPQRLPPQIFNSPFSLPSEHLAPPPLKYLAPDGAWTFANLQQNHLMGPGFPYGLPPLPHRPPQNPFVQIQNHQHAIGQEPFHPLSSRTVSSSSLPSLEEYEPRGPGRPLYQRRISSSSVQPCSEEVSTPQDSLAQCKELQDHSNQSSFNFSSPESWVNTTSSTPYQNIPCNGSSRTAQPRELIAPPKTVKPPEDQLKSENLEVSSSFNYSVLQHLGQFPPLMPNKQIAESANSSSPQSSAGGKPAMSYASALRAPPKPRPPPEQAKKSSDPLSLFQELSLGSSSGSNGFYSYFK

Chain of HELZ WT (insect-purified) (P42694 whole entry): as the sequence (P42694 whole entry K674N) above, with N674K counted along it

B1: RNA/DNA hybrid with 5' ssRNA overhang (EMSA) (DNA:RNA)
RNA: UCGUAGCUCGGGAGUGCACCAGAUUCAGCAAUUAAGCUCUAAGCC
DNA: GTCACTTGATAAGAGGTCATTTGAATTCATGGCTTAGAGCTTAATTGCTGAATCTGGTGCTGGGATCCAACATGTTTTAAATATGCAATG
**Q.** Does B1 bind [1]?
**A.** Result: binds

**Q.** Does B1 bind [2]?
**A.** Result: binds
